Numbering of substitutions follows the chain as printed.

Data on 24 molecules can be found in patent publication EP4582447A1 (Quaerite Biopharm Research (Beijing) Co., Ltd., dated 2025).

B1: V1-2m (VHH)
VHH: EVQLVESGGGLVQPGGSLRLSCAASGRTFSSYTMGWFRQAPGKEREFVVAISKGGYKYDSVSLEARFTISRDNSKNTVYLQMNSLRPEDTAVYYCAATRAYGSSRLRLADTYEYWGQGTLVTVSS
notes: Humanized V1
B2: V1-com-78 (VHH)
VHH: B1 VHH with P87A
notes: Humanized V1
B3: V1-com-87 (VHH)
VHH: B1 VHH with V78L
notes: Humanized V1
B4: V31 (VHH)
VHH: QLQLVESGGGSVQPGGSLRLSCEVSGRTFASYTMGWFRQAPGKEREFVVAISKGGYKYDAVSLEARFTISKDNTKNTVYLQMNSLKPEDTAVYYCAGTRAYGSSRLRLAKTYEYWGQGTQVTVSS
notes: Purified with C-terminal GGGGS-6×His
B5: V43 (VHH)
VHH: B4 VHH with A30T, A60S, K110N
notes: as for B4
B6: V41 (VHH)
VHH: B4 VHH with A30S, A60S
notes: as for B4
B7: V29 (VHH)
VHH: B4 VHH with A30S, A60S, K110N
notes: as for B4
B8: V36 (VHH)
VHH: B4 VHH with A60S, K110D
notes: as for B4
B9: V33 (VHH)
VHH: B4 VHH with A30S, A60S, G97A
notes: as for B4
B10: V43-4m (VHH)
VHH: B1 VHH with S30T, S74A, A97G, D110N
notes: Humanized V43
B11: V1-SA3 (VHH)
VHH: B1 VHH with S74A, P87A
notes: Humanized V1
B12: V1-4m (VHH)
VHH: B1 VHH with S74A, A97S
notes: Humanized V1
B13: V13-4m (VHH)
VHH: B1 VHH with S30T, S60A, S74A, A97G
notes: Humanized V13
B14: V1-com-74-78-97 (VHH)
VHH: B1 VHH with S74A, P87A, A97S
notes: Humanized V1
B15: V13-2m (VHH)
VHH: B1 VHH with S30T, S60A, A97G
notes: Humanized V13 (CDR graft on humanized V1 frameworks)
B16: V30-2H-2m (VHH)
VHH: B1 VHH with S60A, D110K
notes: Humanized V30
B17: V43-3H-87 (VHH)
VHH: B1 VHH with S30T, V78L, A97G, D110N
notes: Humanized V43
B18: V43-3H-78 (VHH)
VHH: B1 VHH with S30T, P87A, A97G, D110N
notes: Humanized V43
B19: V43-1H-78 (VHH)
VHH: B1 VHH with P87A, D110N
notes: Humanized V43
B20: V30-2H-87 (VHH)
VHH: B1 VHH with S60A, V78L, D110K
notes: Humanized V30
B21: V30-2H-78 (VHH)
VHH: B1 VHH with S60A, P87A, D110K
notes: Humanized V30
B22: V43-1H-2m (VHH)
VHH: B1 VHH with D110N
notes: Humanized V43
B23: V43-1H-87 (VHH)
VHH: B1 VHH with V78L, D110N
notes: Humanized V43

One experiment deals with T1, Human VEGFA165 (human, UniProt P15692-4 27-191).
T1 construct: treated as the same molecule; also called antigen VEGFA
T1 sequence (P15692 other isoform, or with tags, fused parts or gaps limits assumed): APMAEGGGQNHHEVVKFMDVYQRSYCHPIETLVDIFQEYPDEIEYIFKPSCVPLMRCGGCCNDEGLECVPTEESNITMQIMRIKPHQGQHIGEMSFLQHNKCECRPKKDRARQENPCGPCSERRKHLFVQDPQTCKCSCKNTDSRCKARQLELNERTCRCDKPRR
The experiment is described as follows: SPR Biacore 8K, VEGFA165 amine-coupled on CM5, nanobody as analyte, 1:1 model.
For B1, the Kd came to 0.243 nM, the koff was determined as 8.24e-05 s⁻¹ and the kon was determined as 339000 M⁻¹ s⁻¹.

For B2, the Kd is 0.257 nM, the koff came out at 8.91e-05 s⁻¹ and the kon stood at 347000 M⁻¹ s⁻¹.

As for B3, the Kd came to 0.252 nM, the koff is 9.08e-05 s⁻¹ and the on-rate (kon) turned out to be 360000 M⁻¹ s⁻¹.

In another experiment the target is T1, Human VEGFA165. The experiment is described as follows: phage ELISA, VEGFA coated 0.5 µg/mL, anti-M13(HRP).
B4 had an OD450 of 2.67 OD450.

On to B5, for which the OD450 amounted to 2.5 OD450.

The molecule B6 gave an OD450 of 2.77 OD450.

As for B7, the OD450 was 2.69 OD450.

As for B8, the OD450 came to 2.77 OD450.

In turn, B9 came in with an OD450 of 2.53 OD450.

The target of a further experiment is T1, Human VEGFA165. Description: cell-based or functional assay.
Molecule “negative control antibody (nanobody binding to an irrelevant antigen) (VHH)” gave a Maximum inhibition rate (%) of HUVEC proliferation of 0%.

The target in a further experiment is T1, Human VEGFA165. The experiment is described as follows: competition ELISA on coated VEGFA, competitor VEGFR2-ECD-Fc 1 nM.
Regarding B4, the IC50 turned out to be 2.07 nM and the “Maximum inhibition rate (%)” value worked out at 97.5%.

Consider B5, for which the IC50 is 6 nM and the “Maximum inhibition rate (%)” value is 93.7%.

On to B7, for which the IC50 is 2.98 nM and the “Maximum inhibition rate (%)” value was 95.3%.

In the case of B8, the half-inhibitory concentration (IC50) was found to be 4.72 nM and the “Maximum inhibition rate (%)” value is 96.3%.

Regarding B9, the IC50 worked out at 3.91 nM and the “Maximum inhibition rate (%)” value turned out to be 96.3%.

For another experiment, the target named is T1, Human VEGFA165. The experiment is described as follows: SPR Biacore 8K, VEGFA165 amine-coupled on CM5, nanobody as analyte, 1:1 model. This is another data set of the same source.
B4 showed a Kd of 0.62 nM, a koff of 0.000172 s⁻¹ and a kon of 277000 M⁻¹ s⁻¹.

Take B5: binding was characterised by a dissociation constant (Kd) of 0.193 nM, the koff was found to be 8.09e-05 s⁻¹ and the on-rate (kon) amounted to 418000 M⁻¹ s⁻¹.

As for B6, the dissociation constant Kd is 0.482 nM, the off-rate (koff) was found to be 0.00016 s⁻¹ and the kon is 331000 M⁻¹ s⁻¹.

B7 displayed a Kd of 0.436 nM, a koff of 0.000127 s⁻¹ and a kon of 291000 M⁻¹ s⁻¹.

The molecule B8 registered a dissociation constant Kd of 0.285 nM, a koff of 0.00012 s⁻¹ and a kon of 419000 M⁻¹ s⁻¹.

Consider B9, for which binding was characterised by a dissociation constant (Kd) of 0.522 nM, the koff stood at 0.000168 s⁻¹ and the on-rate (kon) was 323000 M⁻¹ s⁻¹.

A further experiment deals with T1, Human VEGFA165. Description: competition ELISA on coated VEGFA, competitor VEGFR2-ECD-Fc 2 nM.
On to B10, for which the IC50 was 35.5 nM and the “Maximum inhibition rate (%)” value is 89.3%.

With B11, the concentration for half-maximal inhibition (IC50) was determined as 26.7 nM and the “Maximum inhibition rate (%)” value came to 93.5%.

With B2, the IC50 is 28.5 nM and the “Maximum inhibition rate (%)” value was 93.7%.

As to B12, the IC50 was 26.1 nM and the “Maximum inhibition rate (%)” value was 93%.

Regarding B13, the IC50 was 26.8 nM and the “Maximum inhibition rate (%)” value came out at 89.2%.

As for B14, the IC50 was determined as 20 nM and the “Maximum inhibition rate (%)” value came out at 94.4%.

Regarding B15, the IC50 is 40.1 nM and the “Maximum inhibition rate (%)” value was 88.9%.

A further experiment addresses T1, Human VEGFA165. Description: competition ELISA on coated VEGFA, competitor VEGFR2-ECD-Fc 1 nM. This is another data set of the same source.
As for B16, the IC50 is 5.64 nM and the “Maximum inhibition rate (%)” value is 94.7%.

B17: the IC50 came out at 7.15 nM and the “Maximum inhibition rate (%)” value worked out at 91.6%.

For B18, the IC50 came to 8.63 nM and the “Maximum inhibition rate (%)” value worked out at 93.4%.

On to B19, for which the IC50 worked out at 5.62 nM and the “Maximum inhibition rate (%)” value amounted to 95.5%.

In the case of B20, the IC50 was determined as 5.81 nM and the “Maximum inhibition rate (%)” value came to 94.2%.

Take B21: the IC50 was found to be 4.97 nM and the “Maximum inhibition rate (%)” value worked out at 95.5%.

B22: the IC50 came to 5.99 nM and the “Maximum inhibition rate (%)” value worked out at 94.5%.

B23: the IC50 was determined as 5.27 nM and the “Maximum inhibition rate (%)” value was 95.4%.

For the next experiment, the target named is T1, Human VEGFA165. Description: ELISA, VEGFA coated 0.3 µg/mL, anti-His detection.
B4: it took 0.67 nM to reach a half-maximal effect (EC50).

On to B5, for which the EC50 is 0.53 nM.

Consider B6, for which the EC50 was 0.57 nM.

In turn, B7 yielded an EC50 of 0.77 nM.

The molecule B8 displayed an EC50 of 0.36 nM.

The molecule B9 came in with a concentration giving a half-maximal response (EC50) of 0.64 nM.

For the next experiment, the target named is 3% milk powder (negative control). Description: phage ELISA, 3% milk powder coated (negative control), anti-M13(HRP).
B4 registered an OD450 of 0.0363 OD450.

For the molecule B5, the OD450 is 0.0519 OD450.

B6 yielded an OD450 of 0.0359 OD450.

With B7, the OD450 worked out at 0.0553 OD450.

In turn, B8 showed an OD450 of 0.0623 OD450.

Take B9: the OD450 was 0.0489 OD450.

For the next experiment, the target named is T1, Human VEGFA165. Description: SPR, VEGFA165 on CM5.
With B4, the “fold difference of KD from the positive control BI-VEGF ab” value (from here on “fold difference of KD”) was less than 3 fold.

Take B5: the “fold difference of KD” value was less than 3 fold.

As for B6, the “fold difference of KD” value is less than 3 fold.

B7: the “fold difference of KD” value was less than 3 fold.

For B8, the “fold difference of KD” value is less than 3 fold.

In the case of B9, the “fold difference of KD” value was less than 3 fold.
